Data reported in paper PMC7374751, “TIMP-3 facilitates binding of target metalloproteinases to the endocytic receptor LRP-1 and promotes scavenging of MMP-1” (Scientific Reports, 2020).

B1: Receptor-associated protein (RAP), recombinant His-tagged (natural protein, UniProt P30533 35-357, looked up)
chain: YSREKNQPKPSPKRESGEEFRMEKLNQLWEKAQRLHLPPVRLAELHADLKIQERDELAWKKLKLDGLDEDGEKEARLIRNLNVILAKYGLDGKKDARQVTSNSLSGTQEDGLDDPRLEKLWHKAKTSGKFSGEELDKLWREFLHHKEKVHEYNVLLETLSRTEEIHENVISPSDLSDIKGSVLHSRHTELKEKLRSINQGLDRLRRVSHQGYSTEAEFEEPRVIDLWDLAQSANLTDKELEAFREELKHFEAKIEKHNHYQKQLEIAHEKLRHAESVGDGERVSRSREKHALLEGRTKELGYTVKKHLQDLSGRISRARHNEL
B2: FLAG-tagged N-TIMP-3 (N-terminal domain of TIMP-3) (domain or fragment, UniProt P35625 24-143, looked up)
chain: CTCSPSHPQDAFCNSDIVIRAKVVGKKLVKEGPFGTLVYTIKQMKMYRGFTKMPHVQYIHTEASESLCGLKLEVNKYQYLLTGRVYDGKMYTGLCNFVERWDQLTLSQRKGLNYRYHLGC
B3: TIMP-1 (natural protein)
chain: not shown
notes: also called T1
B4: MMP-1ΔC/TIMP-3 complex (complex)
chain 1: FVLTEGNPRWEQTHLTYRIENYTPDLPRADVDHAIEKAFQLWSNVTPLTFTKVSEGQADIMISFVRGDHRDNSPFDGPGGNLAHAFQPGPGIGGDAHFDEDERWTNNFREYNLHRVAAHELGHSLGLSHSTDIGALMYPSYTFSGDVQLAQDDIDGIQAIYGRSQNPVQP
chain 2: CTCSPSHPQDAFCNSDIVIRAKVVGKKLVKEGPFGTLVYTIKQMKMYRGFTKMPHVQYIHTEASESLCGLKLEVNKYQYLLTGRVYDGKMYTGLCNFVERWDQLTLSQRKGLNYRYHLGCNCKIKSCYYLPCFVTSKNECLWTDMLSNFGYPGYQSKHYACIRQKGGYCSWYRGWAPPDKSIINATDP
notes: catalytic domain of human MMP-1; pro-domain removed with APMA; as m8; as m3
B5: FLAG-tagged ADAMTS-5 lacking the C-terminal thrombospondin domain (ADAMTS5-2) (domain or fragment, UniProt Q9UNA0 262-874, looked up)
chain: SISRARQVELLLVADASMARLYGRGLQHYLLTLASIANRLYSHASIENHIRLAVVKVVVLGDKDKSLEVSKNAATTLKNFCKWQHQHNQLGDDHEEHYDAAILFTREDLCGHHSCDTLGMADVGTICSPERSCAVIEDDGLHAAFTVAHEIGHLLGLSHDDSKFCEETFGSTEDKRLMSSILTSIDASKPWSKCTSATITEFLDDGHGNCLLDLPRKQILGPEELPGQTYDATQQCNLTFGPEYSVCPGMDVCARLWCAVVRQGQMVCLTKKLPAVEGTPCGKGRICLQGKCVDKTKKKYYSTSSHGNWGSWGSWGQCSRSCGGGVQFAYRHCNNPAPRNNGRYCTGKRAIYRSCSLMPCPPNGKSFRHEQCEAKNGYQSDAKGVKTFVEWVPKYAGVLPADVCKLTCRAKGTGYYVVFSPKVTDGTECRLYSNSVCVRGKCVRTGCDGIIGSKLQYDKCGVCGGDNSSCTKIVGTFNKKSKGYTDVVRIPEGATHIKVRQFKAKDQTRFTAYLALKKKNGEYLINGKYMISTSETIIDINGTVMNYSGWSHRDDFLHGMGYSATKEILIVQILATDPTKPLDVRYSFFVPKKSTPKVNSVTSHGSNKVGSHT
notes: ADAMTS-5 lacking the C-terminal thrombospondin domain
B6: FLAG-tagged ADAMTS-4 lacking the C-terminal spacer domain (ADAMTS4-2) (domain or fragment, UniProt O75173 213-685, looked up)
chain: FASLSRFVETLVVADDKMAAFHGAGLKRYLLTVMAAAAKAFKHPSIRNPVSLVVTRLVILGSGEEGPQVGPSAAQTLRSFCAWQRGLNTPEDSDPDHFDTAILFTRQDLCGVSTCDTLGMADVGTVCDPARSCAIVEDDGLQSAFTAAHELGHVFNMLHDNSKPCISLNGPLSTSRHVMAPVMAHVDPEEPWSPCSARFITDFLDNGYGHCLLDKPEAPLHLPVTFPGKDYDADRQCQLTFGPDSRHCPQLPPPCAALWCSGHLNGHAMCQTKHSPWADGTPCGPAQACMGGRCLHMDQLQDFNIPQAGGWGPWGPWGDCSRTCGGGVQFSSRDCTRPVPRNGGKYCEGRRTRFRSCNTEDCPTGSALTFREEQCAAYNHRTDLFKSFPGPMDWVPRYTGVAPQDQCKLTCQAQALGYYYVLEPRVVDGTPCSPDSSSVCVQGRCIHAGCDRIIGSKKKFDKCMVCGGDGSGC
notes: ADAMTS-4 lacking the C-terminal spacer domain
B7: ADAMTS5-2/TIMP-3 complex (complex)
chain 1: B5 chain
chain 2: B4 chain 2
notes: ADAMTS-5 lacking the C-terminal thrombospondin domain; as m17; as m3; also called [35S]TIMP-3/ADAMTS5-2
B8: ADAMTS4-2/TIMP-3 complex (complex)
chain 1: B6 chain
chain 2: B4 chain 2
notes: ADAMTS-4 lacking the C-terminal spacer domain; as m16; as m3; also called [35S]TIMP-3/ADAMTS4-2
B9: ADAM-10/TIMP-3 complex (complex)
chain 1: TTSAEKNTCQLYIQTDHLFFKYYGTREAVIAQISSHVKAIDTIYQTTDFSGIRNISFMVKRIRINTTADEKDPTNPFRFPNIGVEKFLELNSEQNHDDYCLAYVFTDRDFDDGVLGLAWVGAPSGSSGGICEKSKLYSDGKKKSLNTGIITVQNYGSHVPPKVSHITFAHEVGHNFGSPHDSGTECTPGESKNLGQKENGNYIMYARATSGDKLNNNKFSLCSIRNISQVLEKKRNNCFVESGQPICGNGMVEQGEECDCGYSDQCKDECCFDANQPEGRKCKLKPGKQCSPSQGPCCTAQCAFKSKSEKCRDDSDCAREGICNGFTALCPASDPKPNFTDCNRHTQVCINGQCAGSICEKYGLEECTCASSDGKDDKELCHVCCMKKMDPSTCASTGSVQWSRHFSGRTITLQPGSPCNDFRGYCDVFMRCRLVDADGPLARLKKAIFSPELYENIAE
chain 2: B4 chain 2
modifications: 1:1 non-covalent complex; ADAM10 ectodomain (R&D Systems) taken by convention as mature extracellular region without prodomain (catalytic Zn2+), limits not given; TIMP-3 C-terminal/FLAG tag left …

Target: T1, low-density lipoprotein receptor-related protein 1 (LRP-1) (UniProt Q07954 20-4544)
T1 construct: low-density lipoprotein receptor-related protein 1 (LRP-1), bought from Biomac; source: bought: Biomac (Leipzig, Germany)
Assay: SPR; BIAcore T200; LRP-1 immobilised on a CM5 chip by amine coupling (3000 RU); 25 °C; 150 mM NaCl, 10 mM CaCl2, 50 mM Tris-HCl, 0.01% Tween-20, pH 7.5; 30 μl/min; ligands or pre-formed complexes injected; one-site binding model; triplicate
Conditions: both partners purified

T1 sequence (Q07954 20-4544): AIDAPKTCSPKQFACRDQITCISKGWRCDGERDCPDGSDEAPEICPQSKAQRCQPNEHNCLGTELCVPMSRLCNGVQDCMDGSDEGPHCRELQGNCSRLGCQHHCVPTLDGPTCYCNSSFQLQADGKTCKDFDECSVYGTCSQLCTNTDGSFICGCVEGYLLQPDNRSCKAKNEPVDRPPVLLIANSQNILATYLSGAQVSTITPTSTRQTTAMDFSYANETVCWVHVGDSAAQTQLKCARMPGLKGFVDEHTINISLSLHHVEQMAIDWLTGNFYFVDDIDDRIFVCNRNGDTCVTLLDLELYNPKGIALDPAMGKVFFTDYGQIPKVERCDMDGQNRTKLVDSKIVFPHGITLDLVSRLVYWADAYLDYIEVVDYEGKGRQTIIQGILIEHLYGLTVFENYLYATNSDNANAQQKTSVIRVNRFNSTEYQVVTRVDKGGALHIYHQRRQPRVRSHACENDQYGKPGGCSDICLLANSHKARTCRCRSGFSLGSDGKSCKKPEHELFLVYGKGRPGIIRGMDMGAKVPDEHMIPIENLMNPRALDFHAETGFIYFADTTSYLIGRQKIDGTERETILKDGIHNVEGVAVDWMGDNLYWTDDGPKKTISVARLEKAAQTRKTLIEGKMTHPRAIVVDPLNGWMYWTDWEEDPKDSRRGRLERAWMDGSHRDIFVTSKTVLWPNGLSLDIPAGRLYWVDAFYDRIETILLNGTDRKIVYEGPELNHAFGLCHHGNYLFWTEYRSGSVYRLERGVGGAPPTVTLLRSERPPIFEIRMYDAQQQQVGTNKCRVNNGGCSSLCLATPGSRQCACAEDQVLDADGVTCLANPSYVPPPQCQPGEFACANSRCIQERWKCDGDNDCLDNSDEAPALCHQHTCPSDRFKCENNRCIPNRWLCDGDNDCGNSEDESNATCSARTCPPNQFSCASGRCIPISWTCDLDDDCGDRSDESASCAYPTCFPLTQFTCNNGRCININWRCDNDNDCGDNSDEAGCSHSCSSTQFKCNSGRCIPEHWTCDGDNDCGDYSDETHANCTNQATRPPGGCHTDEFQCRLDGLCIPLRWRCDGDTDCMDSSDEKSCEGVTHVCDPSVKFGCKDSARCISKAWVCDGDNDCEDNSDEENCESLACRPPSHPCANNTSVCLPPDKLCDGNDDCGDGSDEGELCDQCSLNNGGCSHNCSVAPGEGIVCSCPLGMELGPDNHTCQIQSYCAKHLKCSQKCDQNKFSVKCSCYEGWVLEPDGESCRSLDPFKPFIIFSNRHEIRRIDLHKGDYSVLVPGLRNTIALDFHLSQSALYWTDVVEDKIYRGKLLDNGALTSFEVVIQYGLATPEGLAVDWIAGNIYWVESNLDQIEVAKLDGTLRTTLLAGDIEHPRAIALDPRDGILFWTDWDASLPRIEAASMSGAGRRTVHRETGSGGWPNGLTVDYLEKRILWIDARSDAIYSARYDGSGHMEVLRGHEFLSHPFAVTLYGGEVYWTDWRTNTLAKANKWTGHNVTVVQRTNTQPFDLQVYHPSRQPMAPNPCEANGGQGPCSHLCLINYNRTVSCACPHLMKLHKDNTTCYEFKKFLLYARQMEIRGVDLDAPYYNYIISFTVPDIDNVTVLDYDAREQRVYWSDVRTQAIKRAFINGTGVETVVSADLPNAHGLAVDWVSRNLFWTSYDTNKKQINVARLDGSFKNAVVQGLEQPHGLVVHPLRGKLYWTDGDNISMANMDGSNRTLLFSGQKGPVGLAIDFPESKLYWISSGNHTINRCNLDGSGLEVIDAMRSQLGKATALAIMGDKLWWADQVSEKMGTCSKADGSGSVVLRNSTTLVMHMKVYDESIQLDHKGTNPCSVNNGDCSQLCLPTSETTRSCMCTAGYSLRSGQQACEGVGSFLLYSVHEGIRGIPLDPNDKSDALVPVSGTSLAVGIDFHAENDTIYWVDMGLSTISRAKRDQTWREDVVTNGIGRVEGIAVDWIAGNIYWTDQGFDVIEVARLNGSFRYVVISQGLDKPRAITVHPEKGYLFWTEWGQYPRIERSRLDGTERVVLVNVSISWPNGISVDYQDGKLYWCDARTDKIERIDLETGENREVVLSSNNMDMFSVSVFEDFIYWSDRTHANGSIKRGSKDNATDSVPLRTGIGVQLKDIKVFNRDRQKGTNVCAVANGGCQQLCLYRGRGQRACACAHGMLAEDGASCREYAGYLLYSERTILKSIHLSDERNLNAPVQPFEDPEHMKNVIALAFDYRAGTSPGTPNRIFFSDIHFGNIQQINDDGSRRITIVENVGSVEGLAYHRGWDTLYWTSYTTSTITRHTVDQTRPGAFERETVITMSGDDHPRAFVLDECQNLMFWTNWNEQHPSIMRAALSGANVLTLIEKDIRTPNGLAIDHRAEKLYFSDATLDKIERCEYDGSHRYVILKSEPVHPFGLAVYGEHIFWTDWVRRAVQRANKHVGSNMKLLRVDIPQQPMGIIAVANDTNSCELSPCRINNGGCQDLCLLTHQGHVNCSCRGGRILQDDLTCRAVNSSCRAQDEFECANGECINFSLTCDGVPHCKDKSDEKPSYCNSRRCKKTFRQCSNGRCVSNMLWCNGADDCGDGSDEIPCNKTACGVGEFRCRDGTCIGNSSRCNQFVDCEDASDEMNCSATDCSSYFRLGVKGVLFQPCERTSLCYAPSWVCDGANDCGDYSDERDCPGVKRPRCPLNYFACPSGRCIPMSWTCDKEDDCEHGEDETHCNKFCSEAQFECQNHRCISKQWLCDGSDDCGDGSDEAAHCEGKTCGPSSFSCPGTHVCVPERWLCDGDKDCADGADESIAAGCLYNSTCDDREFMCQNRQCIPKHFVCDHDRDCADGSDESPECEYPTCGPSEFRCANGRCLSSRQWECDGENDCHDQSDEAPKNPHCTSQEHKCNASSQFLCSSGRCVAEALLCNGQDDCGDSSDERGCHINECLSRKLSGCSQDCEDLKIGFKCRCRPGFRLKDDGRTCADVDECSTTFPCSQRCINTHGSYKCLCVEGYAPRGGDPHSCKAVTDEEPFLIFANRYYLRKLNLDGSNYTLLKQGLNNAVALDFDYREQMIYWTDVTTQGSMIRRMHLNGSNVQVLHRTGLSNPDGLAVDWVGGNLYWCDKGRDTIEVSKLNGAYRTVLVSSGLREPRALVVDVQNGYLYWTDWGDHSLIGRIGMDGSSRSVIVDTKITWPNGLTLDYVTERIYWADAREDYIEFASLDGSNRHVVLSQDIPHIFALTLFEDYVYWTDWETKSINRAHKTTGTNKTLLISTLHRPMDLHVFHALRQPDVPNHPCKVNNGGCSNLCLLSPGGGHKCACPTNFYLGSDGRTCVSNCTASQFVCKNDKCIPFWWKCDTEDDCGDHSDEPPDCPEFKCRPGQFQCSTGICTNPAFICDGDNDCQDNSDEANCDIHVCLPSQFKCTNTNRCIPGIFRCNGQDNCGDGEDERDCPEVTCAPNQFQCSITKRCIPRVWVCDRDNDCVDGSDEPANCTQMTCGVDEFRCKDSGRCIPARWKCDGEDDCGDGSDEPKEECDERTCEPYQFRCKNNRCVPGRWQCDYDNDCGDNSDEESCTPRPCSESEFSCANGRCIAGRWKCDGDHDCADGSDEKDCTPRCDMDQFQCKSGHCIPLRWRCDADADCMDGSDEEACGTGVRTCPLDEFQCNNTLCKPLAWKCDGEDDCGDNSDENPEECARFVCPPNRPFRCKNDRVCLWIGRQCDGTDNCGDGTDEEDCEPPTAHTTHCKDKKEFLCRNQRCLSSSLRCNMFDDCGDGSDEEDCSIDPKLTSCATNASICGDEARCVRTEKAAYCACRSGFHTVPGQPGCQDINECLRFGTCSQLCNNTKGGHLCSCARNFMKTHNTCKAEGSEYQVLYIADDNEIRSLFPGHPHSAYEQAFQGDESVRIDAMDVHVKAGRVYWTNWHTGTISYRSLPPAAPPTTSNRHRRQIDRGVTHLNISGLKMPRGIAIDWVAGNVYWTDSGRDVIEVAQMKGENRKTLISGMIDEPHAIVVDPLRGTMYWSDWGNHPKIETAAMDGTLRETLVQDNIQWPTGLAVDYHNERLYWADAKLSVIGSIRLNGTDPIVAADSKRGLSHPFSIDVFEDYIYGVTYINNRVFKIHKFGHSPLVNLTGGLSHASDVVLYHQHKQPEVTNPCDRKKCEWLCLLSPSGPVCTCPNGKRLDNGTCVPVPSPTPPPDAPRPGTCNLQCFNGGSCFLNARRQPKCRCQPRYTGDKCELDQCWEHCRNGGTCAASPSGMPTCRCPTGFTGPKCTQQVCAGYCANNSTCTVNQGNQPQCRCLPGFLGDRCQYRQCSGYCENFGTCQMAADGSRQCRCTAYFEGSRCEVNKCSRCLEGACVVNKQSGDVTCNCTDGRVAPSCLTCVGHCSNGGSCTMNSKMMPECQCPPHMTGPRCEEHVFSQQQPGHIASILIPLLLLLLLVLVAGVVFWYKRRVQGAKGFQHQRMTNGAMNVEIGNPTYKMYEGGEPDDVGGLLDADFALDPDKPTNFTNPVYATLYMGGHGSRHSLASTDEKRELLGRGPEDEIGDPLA

Point of comparison: B7, Kd 4.5 nM. Against it:
- B1 — 7.5-fold lower, 0.6 nM
- B2 — within 1.5-fold, 5.65 nM
- B3 — 6.9-fold higher, 30.9 nM
- B4 — within 1.5-fold, 6.42 nM
- B5 — 2-fold lower, 2.27 nM
- B6 — 17-fold higher, 77.6 nM
- B8 — within 1.5-fold, 3.3 nM
- B9 — 1.9-fold higher, 8.67 nM

Point of comparison: B6, koff 0.00381 s⁻¹. Against it:
- B1 — within 1.5-fold, 0.00419 s⁻¹
- B2 — within 1.5-fold, 0.00321 s⁻¹
- B3 — 2.9-fold higher, 0.0109 s⁻¹
- B4 — 1.5-fold lower, 0.00254 s⁻¹
- B5 — 1.8-fold higher, 0.00678 s⁻¹
- B7 — 1.8-fold lower, 0.00206 s⁻¹
- B8 — 1.8-fold lower, 0.00217 s⁻¹
- B9 — within 1.5-fold, 0.00386 s⁻¹

Point of comparison: B3, kon 353000 M⁻¹ s⁻¹. Against it:
- B1 — 19-fold higher, 6.88e+06 M⁻¹ s⁻¹
- B2 — 1.6-fold higher, 567000 M⁻¹ s⁻¹
- B4 — within 1.5-fold, 396000 M⁻¹ s⁻¹
- B5 — 8.5-fold higher, 2.99e+06 M⁻¹ s⁻¹
- B6 — 7.2-fold lower, 49000 M⁻¹ s⁻¹
- B7 — within 1.5-fold, 457000 M⁻¹ s⁻¹
- B8 — 1.9-fold higher, 659000 M⁻¹ s⁻¹
- B9 — within 1.5-fold, 446000 M⁻¹ s⁻¹
